T1: TLR7 Fc chimera (recombinant human TLR7) (Homo sapiens, UniProt Q9NYK1 27-839)
T1 sequence: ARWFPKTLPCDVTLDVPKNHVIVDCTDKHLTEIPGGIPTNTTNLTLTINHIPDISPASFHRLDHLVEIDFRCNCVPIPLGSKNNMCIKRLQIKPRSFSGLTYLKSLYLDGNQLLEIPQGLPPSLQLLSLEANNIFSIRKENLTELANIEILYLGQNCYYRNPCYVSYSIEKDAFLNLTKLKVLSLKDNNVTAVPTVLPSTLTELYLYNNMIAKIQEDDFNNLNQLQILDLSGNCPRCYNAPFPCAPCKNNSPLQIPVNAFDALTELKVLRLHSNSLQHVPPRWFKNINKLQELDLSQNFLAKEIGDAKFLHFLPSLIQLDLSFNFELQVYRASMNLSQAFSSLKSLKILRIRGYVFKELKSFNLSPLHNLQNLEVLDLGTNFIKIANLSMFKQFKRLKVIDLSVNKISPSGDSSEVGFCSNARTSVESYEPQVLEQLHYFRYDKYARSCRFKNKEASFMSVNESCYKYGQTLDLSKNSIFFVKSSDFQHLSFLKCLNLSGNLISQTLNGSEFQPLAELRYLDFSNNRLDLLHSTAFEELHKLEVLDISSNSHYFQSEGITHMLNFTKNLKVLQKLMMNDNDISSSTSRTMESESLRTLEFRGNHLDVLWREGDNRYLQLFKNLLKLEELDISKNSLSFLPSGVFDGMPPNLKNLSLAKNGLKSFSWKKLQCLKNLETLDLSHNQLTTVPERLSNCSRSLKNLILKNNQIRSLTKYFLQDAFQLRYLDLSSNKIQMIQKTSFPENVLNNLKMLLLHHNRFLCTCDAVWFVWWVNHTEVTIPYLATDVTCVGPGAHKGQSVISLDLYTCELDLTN


Target: T1, TLR7 Fc chimera (recombinant human TLR7)
Assay: fluorescence anisotropy; 10 uM HEPES (so in the source), 150 mM NaCl, 300 uM EDTA, 1 mM DTT, 1% glycerol; pH and temperature not stated; FA: 20 nM RNA, 10-300 nM TLR7, 10 min; EMSA: 100 ng RNA, 1 ug TLR7 in 20 uL, 30 min, 5% polyacrylamide gel
Conditions: protein: commercial; tags: Fc chimera; chain copies: 2; label: 5' FAM

Row | Binder | binding result | Kd [nM]
1 | AAAAAAAAAAAAAAAAAAA (ssRNA) [polyA] | no binding | 
2 | AGCUUAACCUGUCCUUCAA (ssRNA) [RNA9.2s] |  | 292
3 | UUGAAGGACAGGUUAAGCU (ssRNA) [RNA9.2a] |  | 752
4 | GUUGUCAAUGGUCCUUCAA (ssRNA) [XIST1.1] |  | 138
